Source: paper PMC4335047, “Interaction between the tRNA-Binding and C-Terminal Domains of Yeast Gcn2 Regulates Kinase Activity In Vivo” (PLoS Genetics, 2015)

How the values were obtained:
Assay in all cases: pull-down; purified GST fusions (5 μg) immobilised on glutathione-Sepharose 4B beads; in vitro translated [35S]-HisRS(970–1497), partially purified by ammonium sulfate precipitation; buffer A, 4°C, 2 h; without or with increasing tRNA^Phe or a model mRNA; fluorography
Conditions in all cases: one partner purified
[1] = biological target: T1, GST-HisRS (Gcn2 residues 970–1497), wild type (S. cerevisiae, UniProt P15442 970-1497)
T1 construct: Gcn2 of S. cerevisiae, HisRS-related domain, residues 970-1497; also called WT GST-HisRS; GST-HisRS (970–1497); not shown: GST, N-terminal, kept
T1 sequence (looked up): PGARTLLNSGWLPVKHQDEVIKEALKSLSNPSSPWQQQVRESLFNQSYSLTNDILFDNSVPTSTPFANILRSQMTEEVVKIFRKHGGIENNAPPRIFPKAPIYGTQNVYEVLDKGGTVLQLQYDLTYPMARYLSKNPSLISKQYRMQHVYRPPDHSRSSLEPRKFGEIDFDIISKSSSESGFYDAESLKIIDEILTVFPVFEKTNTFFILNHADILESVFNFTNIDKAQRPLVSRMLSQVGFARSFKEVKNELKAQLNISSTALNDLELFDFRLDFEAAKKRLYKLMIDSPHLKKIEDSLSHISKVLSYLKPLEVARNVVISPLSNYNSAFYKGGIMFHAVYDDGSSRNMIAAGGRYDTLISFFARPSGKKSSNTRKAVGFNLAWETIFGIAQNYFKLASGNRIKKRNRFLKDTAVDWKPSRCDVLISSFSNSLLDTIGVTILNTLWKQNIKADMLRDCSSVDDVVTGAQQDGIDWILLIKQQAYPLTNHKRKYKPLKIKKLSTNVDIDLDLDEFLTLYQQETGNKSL

[2] = biological target: T2, GST-KD (Gcn2 residues 568–998) (S. cerevisiae, UniProt P15442 568-998)
T2 construct: Gcn2 of S. cerevisiae, kinase domain (KD), residues 568-998; a pGEX vector with the tac promoter points to E. coli; also called GST-GCN2(568–998); source: purified GST fusion (P tac, pGEX-5x-1); not shown: GST, N-terminal, kept

[3] = biological target: T3, GST-CTD (Gcn2 residues 1498–1659) (S. cerevisiae, UniProt P15442 1498-1659)
T3 construct: Gcn2 of S. cerevisiae, C-terminal domain (CTD), residues 1498-1659; a pGEX vector with the tac promoter points to E. coli; also called GST-GCN2(1498–1659); source: purified GST fusion (P tac, pGEX-5x-1); not shown: GST, N-terminal, kept
T3 sequence (looked up): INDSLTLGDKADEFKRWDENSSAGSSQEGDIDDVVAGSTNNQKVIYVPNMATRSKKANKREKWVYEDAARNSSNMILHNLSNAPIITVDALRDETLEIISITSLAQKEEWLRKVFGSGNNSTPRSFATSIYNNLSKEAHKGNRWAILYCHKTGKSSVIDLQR

T2 sequence (P15442 568-998): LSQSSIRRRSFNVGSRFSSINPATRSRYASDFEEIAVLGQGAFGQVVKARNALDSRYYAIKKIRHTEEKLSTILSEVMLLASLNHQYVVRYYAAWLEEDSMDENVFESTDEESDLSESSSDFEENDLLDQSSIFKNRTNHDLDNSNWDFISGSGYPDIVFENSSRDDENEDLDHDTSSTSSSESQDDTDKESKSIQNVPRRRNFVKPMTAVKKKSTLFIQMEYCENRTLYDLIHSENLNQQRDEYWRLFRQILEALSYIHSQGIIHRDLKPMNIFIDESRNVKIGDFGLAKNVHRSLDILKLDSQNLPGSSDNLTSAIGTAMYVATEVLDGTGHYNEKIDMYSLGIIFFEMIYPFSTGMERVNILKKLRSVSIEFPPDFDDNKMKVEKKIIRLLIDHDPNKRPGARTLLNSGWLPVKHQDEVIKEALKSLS

B1: [35S]-HisRS(970–1497) segment of Gcn2 (domain or fragment, S. cerevisiae, UniProt P15442 970-1497, looked up)
chain: PGARTLLNSGWLPVKHQDEVIKEALKSLSNPSSPWQQQVRESLFNQSYSLTNDILFDNSVPTSTPFANILRSQMTEEVVKIFRKHGGIENNAPPRIFPKAPIYGTQNVYEVLDKGGTVLQLQYDLTYPMARYLSKNPSLISKQYRMQHVYRPPDHSRSSLEPRKFGEIDFDIISKSSSESGFYDAESLKIIDEILTVFPVFEKTNTFFILNHADILESVFNFTNIDKAQRPLVSRMLSQVGFARSFKEVKNELKAQLNISSTALNDLELFDFRLDFEAAKKRLYKLMIDSPHLKKIEDSLSHISKVLSYLKPLEVARNVVISPLSNYNSAFYKGGIMFHAVYDDGSSRNMIAAGGRYDTLISFFARPSGKKSSNTRKAVGFNLAWETIFGIAQNYFKLASGNRIKKRNRFLKDTAVDWKPSRCDVLISSFSNSLLDTIGVTILNTLWKQNIKADMLRDCSSVDDVVTGAQQDGIDWILLIKQQAYPLTNHKRKYKPLKIKKLSTNVDIDLDLDEFLTLYQQETGNKSL
modifications: [35S]-methionine labeled
notes: Gcn2 of S. cerevisiae, HisRS-related domain, residues 970-1497; P T7-GCN2 (970–1497) in pGEM-3Z; also called [^35S]-methionine labeled HisRS fragment; [^35S]-HisRS domain fragments; source: in vitro translated (TNT T7 Coupled Reticulocyte Lysate System), partially purified by ammonium sulfate precipitation
fold reduction of the pull-down on addition of tRNA^Phe [1]: ~2.1 fold
fold reduction of the pull-down on addition of tRNA^Phe [2]: ~1.8 fold
fold reduction of the pull-down on addition of tRNA^Phe [3]: ~5.4 fold
